In the supplement of paper PMC9112550, “Optimization of the antimicrobial peptide Bac7 by deep mutational scanning” (BMC Biology, 2022):

Tested on: Escherichia coli TOP10
Assay: shrunken log2 fold change of peptide-encoding DNA abundance (4.5 h post-induction vs induction); higher = less antimicrobial activity (less host growth inhibition)
Conditions: time post-induction: 4.5 h; library: site-saturation at positions 5, 18, 19, 20
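Also: peptides expressed intracellularly from a pBAD plasmid library in pooled LB shake-flask culture, induced with 0.3% L-arabinose, DNA abundance read by NGS, three biological replicates, DESeq2 with apeglm shrinkage.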

RRIRERPPRLPRPRPRPAWTPRP
shrunken log2 fold change: 0.0563

RRIRHRPPRLPRPRPRPNQAPRP
shrunken log2 fold change: 0.033

RRIRHRPPRLPRPRPRPAIFPRP
shrunken log2 fold change: -0.00284

RRIRTRPPRLPRPRPRPMLHPRP
shrunken log2 fold change: 0.111

RRIRTRPPRLPRPRPRPRIEPRP
shrunken log2 fold change: 0.453

RRIRWRPPRLPRPRPRPVLHPRP
shrunken log2 fold change: -0.0358

RRIRVRPPRLPRPRPRPPFCPRP
shrunken log2 fold change: 1.39

RRIRGRPPRLPRPRPRPADNPRP
shrunken log2 fold change: -0.0713

RRIRERPPRLPRPRPRPGKVPRP
shrunken log2 fold change: 0.206

RRIRMRPPRLPRPRPRPTPGPRP
shrunken log2 fold change: 1.13

RRIRMRPPRLPRPRPRPKMKPRP
shrunken log2 fold change: 1.45

RRIRRRPPRLPRPRPRPSVMPRP
shrunken log2 fold change: 0.157

RRIRMRPPRLPRPRPRPCVHPRP
shrunken log2 fold change: 0.0648

RRIRDRPPRLPRPRPRPYWIPRP
shrunken log2 fold change: -0.296

RRIRNRPPRLPRPRPRPETHPRP
shrunken log2 fold change: -0.0861

RRIRQRPPRLPRPRPRPTTTPRP
shrunken log2 fold change: -0.126

RRIRDRPPRLPRPRPRPKPGPRP
shrunken log2 fold change: 0.654

RRIRTRPPRLPRPRPRPVADPRP
shrunken log2 fold change: 0.0403

RRIRRRPPRLPRPRPRPNNTPRP
shrunken log2 fold change: 0.00573

RRIRVRPPRLPRPRPRPVRKPRP
shrunken log2 fold change: 0.274

RRIRNRPPRLPRPRPRPTKSPRP
shrunken log2 fold change: 0.141

RRIRRRPPRLPRPRPRPTYPPRP
shrunken log2 fold change: 0.0623

RRIRIRPPRLPRPRPRPQVTPRP
shrunken log2 fold change: -0.4

RRIRWRPPRLPRPRPRPCMPPRP
shrunken log2 fold change: -0.425

RRIRHRPPRLPRPRPRPFRNPRP
shrunken log2 fold change: -0.221

RRIRWRPPRLPRPRPRPLNMPRP
shrunken log2 fold change: -0.832

RRIRRRPPRLPRPRPRPQQHPRP
shrunken log2 fold change: -0.0327

RRIRLRPPRLPRPRPRPHKYPRP
shrunken log2 fold change: -0.559

RRIRFRPPRLPRPRPRPQPAPRP
shrunken log2 fold change: 0.652

RRIRGRPPRLPRPRPRPAVWPRP
shrunken log2 fold change: 0.71

RRIRARPPRLPRPRPRPVQTPRP
shrunken log2 fold change: 0.264

RRIRRRPPRLPRPRPRPRMIPRP
shrunken log2 fold change: -0.136

RRIRQRPPRLPRPRPRPEHIPRP
shrunken log2 fold change: -0.0129

RRIRYRPPRLPRPRPRPQQNPRP
shrunken log2 fold change: -0.421

RRIRYRPPRLPRPRPRPSIAPRP
shrunken log2 fold change: -0.216

RRIRRRPPRLPRPRPRPHWHPRP
shrunken log2 fold change: 0.0772

RRIRPRPPRLPRPRPRPLVFPRP
shrunken log2 fold change: 0.257

RRIRIRPPRLPRPRPRPWFHPRP
shrunken log2 fold change: -0.768

RRIRLRPPRLPRPRPRPPQDPRP
shrunken log2 fold change: 0.348

RRIRDRPPRLPRPRPRPLPMPRP
shrunken log2 fold change: 0.0543

RRIRARPPRLPRPRPRPQWQPRP
shrunken log2 fold change: -0.00057

RRIRHRPPRLPRPRPRPDMLPRP
shrunken log2 fold change: -0.481

RRIRKRPPRLPRPRPRPGTMPRP
shrunken log2 fold change: 0.0526

RRIRCRPPRLPRPRPRPAKPPRP
shrunken log2 fold change: -0.144

RRIRQRPPRLPRPRPRPTANPRP
shrunken log2 fold change: 0.197

RRIRHRPPRLPRPRPRPCMMPRP
shrunken log2 fold change: -0.0344

RRIRHRPPRLPRPRPRPEPWPRP
shrunken log2 fold change: 0.171

RRIRWRPPRLPRPRPRPLIAPRP
shrunken log2 fold change: 0.273

RRIRIRPPRLPRPRPRPQYDPRP
shrunken log2 fold change: -0.043

RRIRVRPPRLPRPRPRPLVDPRP
shrunken log2 fold change: -0.196

RRIRDRPPRLPRPRPRPPSQPRP
shrunken log2 fold change: 0.113

RRIRIRPPRLPRPRPRPIDKPRP
shrunken log2 fold change: -0.364

RRIRRRPPRLPRPRPRPNFDPRP
shrunken log2 fold change: -0.102

RRIRWRPPRLPRPRPRPSSPPRP
shrunken log2 fold change: -0.0889

RRIRPRPPRLPRPRPRPAQAPRP
shrunken log2 fold change: 0.329

RRIRARPPRLPRPRPRPQKLPRP
shrunken log2 fold change: 0.298

RRIRSRPPRLPRPRPRPDTEPRP
shrunken log2 fold change: -0.0911

RRIRTRPPRLPRPRPRPRHIPRP
shrunken log2 fold change: -0.158

RRIRQRPPRLPRPRPRPILDPRP
shrunken log2 fold change: 0.0277

RRIRTRPPRLPRPRPRPHKVPRP
shrunken log2 fold change: -0.00818

RRIRCRPPRLPRPRPRPQWAPRP
shrunken log2 fold change: 0.0425

RRIRMRPPRLPRPRPRPINNPRP
shrunken log2 fold change: -0.347

RRIRFRPPRLPRPRPRPAFIPRP
shrunken log2 fold change: -0.274

RRIRWRPPRLPRPRPRPAQHPRP
shrunken log2 fold change: 0.363

RRIRHRPPRLPRPRPRPVFEPRP
shrunken log2 fold change: -0.153

RRIRLRPPRLPRPRPRPYVLPRP
shrunken log2 fold change: -0.0278

RRIRIRPPRLPRPRPRPAGEPRP
shrunken log2 fold change: 0.171

RRIRHRPPRLPRPRPRPLGYPRP
shrunken log2 fold change: -0.0228

RRIRSRPPRLPRPRPRPRCAPRP
shrunken log2 fold change: 0.509

RRIRNRPPRLPRPRPRPRIAPRP
shrunken log2 fold change: 0.069

RRIRWRPPRLPRPRPRPMEVPRP
shrunken log2 fold change: -0.00973

RRIRDRPPRLPRPRPRPFEWPRP
shrunken log2 fold change: 0.109

RRIRHRPPRLPRPRPRPASYPRP
shrunken log2 fold change: -0.103

RRIRRRPPRLPRPRPRPETAPRP
shrunken log2 fold change: 0.658

RRIRCRPPRLPRPRPRPGGQPRP
shrunken log2 fold change: -0.218

RRIRMRPPRLPRPRPRPQMEPRP
shrunken log2 fold change: 0.0809

RRIRFRPPRLPRPRPRPWTWPRP
shrunken log2 fold change: 0.0306

RRIRWRPPRLPRPRPRPQYMPRP
shrunken log2 fold change: -0.164

RRIRPRPPRLPRPRPRPCQAPRP
shrunken log2 fold change: 0.00851

RRIRMRPPRLPRPRPRPWPTPRP
shrunken log2 fold change: 0.675

RRIRIRPPRLPRPRPRPIAGPRP
shrunken log2 fold change: -0.017

RRIRKRPPRLPRPRPRPCVRPRP
shrunken log2 fold change: -0.215

RRIRMRPPRLPRPRPRPGFLPRP
shrunken log2 fold change: 0.113

RRIRRRPPRLPRPRPRPDLEPRP
shrunken log2 fold change: 0.0267

RRIRYRPPRLPRPRPRPCAQPRP
shrunken log2 fold change: -0.00639

RRIRHRPPRLPRPRPRPEHAPRP
shrunken log2 fold change: -0.0423

RRIRLRPPRLPRPRPRPCKMPRP
shrunken log2 fold change: -0.503

RRIRPRPPRLPRPRPRPKKKPRP
shrunken log2 fold change: -0.192

RRIRRRPPRLPRPRPRPEKQPRP
shrunken log2 fold change: 0.147

RRIRTRPPRLPRPRPRPYDFPRP
shrunken log2 fold change: -0.385

RRIRMRPPRLPRPRPRPLNPPRP
shrunken log2 fold change: 0.0743

RRIRERPPRLPRPRPRPRKSPRP
shrunken log2 fold change: -0.131

RRIRTRPPRLPRPRPRPERRPRP
shrunken log2 fold change: 0.0791

RRIRPRPPRLPRPRPRPYYFPRP
shrunken log2 fold change: -0.427

RRIRWRPPRLPRPRPRPQKWPRP
shrunken log2 fold change: 0.00891

RRIRHRPPRLPRPRPRPQRTPRP
shrunken log2 fold change: -0.145

RRIRMRPPRLPRPRPRPWWYPRP
shrunken log2 fold change: -1.27

RRIRIRPPRLPRPRPRPTSYPRP
shrunken log2 fold change: -0.261

RRIRRRPPRLPRPRPRPMLSPRP
shrunken log2 fold change: 0.00534

RRIRRRPPRLPRPRPRPHDWPRP
shrunken log2 fold change: 0.312

RRIRERPPRLPRPRPRPEQGPRP
shrunken log2 fold change: 0.0117

RRIRERPPRLPRPRPRPTGFPRP
shrunken log2 fold change: -0.00436

RRIRSRPPRLPRPRPRPQRYPRP
shrunken log2 fold change: -0.167

RRIRHRPPRLPRPRPRPHWGPRP
shrunken log2 fold change: -0.123

RRIRPRPPRLPRPRPRPMFTPRP
shrunken log2 fold change: -0.178

RRIRTRPPRLPRPRPRPVECPRP
shrunken log2 fold change: 0.0216

RRIRHRPPRLPRPRPRPAHCPRP
shrunken log2 fold change: 0.115

RRIRGRPPRLPRPRPRPTTGPRP
shrunken log2 fold change: 0.418

RRIRYRPPRLPRPRPRPLVAPRP
shrunken log2 fold change: -0.274

RRIRVRPPRLPRPRPRPEAHPRP
shrunken log2 fold change: 0.0146

RRIRCRPPRLPRPRPRPANSPRP
shrunken log2 fold change: -0.685

RRIRDRPPRLPRPRPRPIYPPRP
shrunken log2 fold change: -1.42

RRIRGRPPRLPRPRPRPYQVPRP
shrunken log2 fold change: 0.174

RRIRARPPRLPRPRPRPTVSPRP
shrunken log2 fold change: 0.136

RRIRRRPPRLPRPRPRPVSAPRP
shrunken log2 fold change: 0.588

RRIRERPPRLPRPRPRPMCQPRP
shrunken log2 fold change: -0.051

RRIRLRPPRLPRPRPRPKVSPRP
shrunken log2 fold change: 0.0482

RRIRMRPPRLPRPRPRPWQGPRP
shrunken log2 fold change: 0.155

RRIRYRPPRLPRPRPRPYVSPRP
shrunken log2 fold change: -0.0075

RRIRNRPPRLPRPRPRPILYPRP
shrunken log2 fold change: -0.267

RRIRARPPRLPRPRPRPIKVPRP
shrunken log2 fold change: -0.104

RRIRFRPPRLPRPRPRPVHVPRP
shrunken log2 fold change: -0.191

RRIRARPPRLPRPRPRPFSMPRP
shrunken log2 fold change: -0.215

RRIRIRPPRLPRPRPRPFYGPRP
shrunken log2 fold change: 0.0259

RRIRKRPPRLPRPRPRPQAGPRP
shrunken log2 fold change: -0.00963

RRIRIRPPRLPRPRPRPMFHPRP
shrunken log2 fold change: -0.517

RRIRHRPPRLPRPRPRPAWAPRP
shrunken log2 fold change: 0.48

RRIRTRPPRLPRPRPRPFKGPRP
shrunken log2 fold change: -0.264

RRIRYRPPRLPRPRPRPDYEPRP
shrunken log2 fold change: -0.105

RRIRERPPRLPRPRPRPEDRPRP
shrunken log2 fold change: -0.0523

RRIRKRPPRLPRPRPRPHTFPRP
shrunken log2 fold change: -0.309

RRIRFRPPRLPRPRPRPRTMPRP
shrunken log2 fold change: 0.0577

RRIRFRPPRLPRPRPRPKLNPRP
shrunken log2 fold change: -0.193

RRIRPRPPRLPRPRPRPCYNPRP
shrunken log2 fold change: -0.868

RRIRDRPPRLPRPRPRPNYHPRP
shrunken log2 fold change: -0.359

RRIRPRPPRLPRPRPRPKKVPRP
shrunken log2 fold change: 0.0308

RRIRMRPPRLPRPRPRPIVMPRP
shrunken log2 fold change: 0.163

RRIRDRPPRLPRPRPRPHFMPRP
shrunken log2 fold change: -0.47

RRIRTRPPRLPRPRPRPEESPRP
shrunken log2 fold change: -0.0116

RRIRKRPPRLPRPRPRPMRSPRP
shrunken log2 fold change: 0.638

RRIRPRPPRLPRPRPRPGFQPRP
shrunken log2 fold change: 0.215

RRIRWRPPRLPRPRPRPPYYPRP
shrunken log2 fold change: -0.183

RRIRRRPPRLPRPRPRPHHHPRP
shrunken log2 fold change: -0.161

RRIRRRPPRLPRPRPRPKRLPRP
shrunken log2 fold change: 0.191

RRIRCRPPRLPRPRPRPDSQPRP
shrunken log2 fold change: -0.203

RRIRYRPPRLPRPRPRPAHCPRP
shrunken log2 fold change: 0.0564

RRIRTRPPRLPRPRPRPAVVPRP
shrunken log2 fold change: 0.0328

RRIRMRPPRLPRPRPRPTCPPRP
shrunken log2 fold change: 0.128

RRIRRRPPRLPRPRPRPCMWPRP
shrunken log2 fold change: 0.313

RRIRERPPRLPRPRPRPTGCPRP
shrunken log2 fold change: 0.155
